The values below come from US20250302974A1, “LECTIN-DRUG CONJUGATES” (UNICHEM LABORATORIES LIMITED, priority 2021, published 2025).

Series [1] deals with human urinary bladder cancer cell line (T-24). Briefly: Cytotoxicity assay, cell titer glow luminescence, 72 h. In kind it is cell-based. How it is done:
(§1) T-24 Cell line were cultured in McCoy's 5a Medium Modified supplemented with 10% FBS and the PA-1 Cell line was cultured in EMEM Media supplemented with 10% FBS. The assay was performed by plating 5,000 cells/well and incubated at 37° C. overnight. […] Each concentration was added in triplicate and media-only wells used as a control. After incubation for 72 h cell titer glow (Promega) reagent (50 μL) was added to each well and the plates shaken for 5 mins and the luminescence was recorded. Percent viability was determined by dividing luminescence of the treated well by the non-treated well and multiplying by 100. Data was analysed using non-linear regression with a logarithmic scale.
(§2) 5,000 cells/well were plated and incubated at 37° C. overnight. Conjugates/vehicle control dilutions were made in respective media and added to cells. Volume added: 50 uL to each well. Starting treatment concentration was 1 uM for Conjugate of formula 16 and 18, and control SEQ ID NO: 5 alone and 10% for vehicle control (1×PBS with 20% DMA) and then diluted 10-fold down for a total of 11 treatment dilutions. Each concentration was analysed in triplicates. Media-only wells was used as a control to calculate percent viability. Cell titer glow reagent (volume: 50 uL) was added to each well, the plate was shaken for 5 mins and the luminescence was recorded. Drug Treatment Time: 72 hours. Percent viability was calculated by dividing the luminescence signal obtained for each treated well by the untreated well (media-only control) and multiplying by 100.

Series [2] deals with ovarian cancer cell line (PA-1). The description is as above. To be noted: for activity against PA-1 cell lines (in words): IC50 values in nanomoles. In kind it is cell-based. Here is the method:
as §1, §2

B1: Formula 18: Recombinant lectin of SEQ ID NO 5 conjugated with Tesirine, DAR 1.05 (conjugate)
chain: SYKITVRVYQTNPDAFFHPVEKTVWKYANGGTWTITDDQHVLTMGGSGTSGTLRFHADNGESFTATFGVHNYKRWGDIVTNLAADETGMVINQQYYSQKNREEARERQLSNYQVKNAKGRNFQIVYTEAEGNDLHANLIIGC
modifications: Tesirine conjugate
As for B1, the IC50 came out at 19.9 nM in series [1] (72 h) and 1.04 nM in series [2] (72 h). Besides, the “activity against T-24 cell lines (in words)” value in series [1] (IC50 values in nanomoles) was “potent activity”. Besides, the “activity against PA-1 cell lines (in words)” value in series [2] is “potent activity”.

B2: SEQ ID NO: 5: recombinant S. rolfsii lectin variant with T1S, C76G and cysteine added at C terminal end (protein)
chain: SYKITVRVYQTNPDAFFHPVEKTVWKYANGGTWTITDDQHVLTMGGSGTSGTLRFHADNGESFTATFGVHNYKRWGDIVTNLAADETGMVINQQYYSQKNREEARERQLSNYQVKNAKGRNFQIVYTEAEGNDLHANLIIGC
modifications: C-terminal cysteine added
notes: recombinant S. rolfsii lectin variant with T1S, C76G and cysteine added at C terminal end
In the case of B2, the “cytotoxic effects below 10 μM concentration” value in series [1] (below 10 μM) and in series [2] (below 10 μM) was “does not exhibit major cytotoxic effects” in each case. Besides, in series [2] (72 h), the “IC50 values, PA-1 Cell line” value was found to be 16 µg/mL.

B3: Formula 19: Recombinant lectin of SEQ ID NO 2 (via Formula C) conjugated with Tesirine, DAR 1.32 (conjugate)
chain: TYKITVRVYQTNPDAFFHPVEKTVWKYANGGTWTITDDQHVLTMGGSGTSGTLRFHADNGESFTATFGVHNYKRWCDIVTNLAADETGMVINQQYYSQKNREEARERQLSNYQVKNAKGRNFQIVYTEAEGNDLHANLIIG
modifications: Tesirine conjugate via Formula C linker
With B3, the IC50 in series [2] (72 h) worked out at 5.22 nM; in series [2] (72 h, listed as formula 19), 5.22 nM. Besides, the “activity against PA-1 cell lines (in words)” value in series [2] is listed as “potent activity”.
